{
  "source": "paper PMC5059447",
  "key": {"[1]": {"target": "beak and feather disease virus capsid (Cap) protein, residues 14-247 (beak and feather disease virus (BFDV))", "assay": "crystal structure; 60-mer crystals: 0.8 M Na/K hydrogen phosphate pH 7.4, 290 K; space group F432; no ssDNA"}, "[2]": {"target": "beak and feather disease virus capsid (Cap) protein, residues 14-247 (beak and feather disease virus (BFDV))", "assay": "crystal structure; 10-mer crystals: 1.1 M ammonium sulfate, Tris pH 8.5, 0.1 M iron chloride, 290 K; space group P212121; no ssDNA"}, "[3]": {"target": "beak and feather disease virus capsid (Cap) protein, residues 14-247 (beak and feather disease virus (BFDV))", "assay": "crystal structure; 60-mer co-crystallised with ssDNA oligonucleotides labelled with AlexaFluor488 and AlexaFluor647; space group F432"}},
  "data": [
    {"substance": "beak and feather disease virus capsid (Cap) protein, residues 14-247 (domain or fragment)", "values": [
      {"measurement": "stoichiometry N", "setting": "[1]", "value": 60},
      {"measurement": "stoichiometry N", "setting": "[2]", "value": 10},
      {"measurement": "stoichiometry N", "setting": "[3]", "value": 60}
    ]}
  ]
}
